Data as given in the supplement of paper PMC12636428.

System: Saccharomyces cerevisiae
Test: transcriptional activation domain activity (GFP:mCherry ratio, weighted mean of sorted bins, harmonized to initial dataset scale) (arbitrary fluorescence ratio units); higher = stronger transcriptional activation
Conditions: beta-estradiol 1 µM; induction time 4 h
Procedure, shortened: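 Protein tiles carrying barcodes and fused to an estradiol-inducible synthetic transcription factor were placed at the URA3 locus of yeast diploids with a GFP reporter. Following 4 hours at 30 °C in SC with 1 uM beta-estradiol, cells were sorted into 8 GFP:mCherry bins, barcodes were sequenced, and tiles with fewer than 50 reads were discarded. Activation activity is given as the read-weighted mean of bin median fluorescence, averaged across barcodes and linearly mapped to the initial dataset scale.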

Sequence | transcriptional activation domain activity
ATGAGSDANAGEDETFHKSGEATLSSQHRYKDAIDFRKIVLKLTDGVRWGLGI | 37200
INVTSPPPIDYLSIGDFSFFSFETTDLPFSIDSGVLLPSLSSFEQPIFDFNFI | 143000
SKHEDQKSRRSRDEKDRGSRSSRHREDGHRSHRDRSRSRDRHHRSSKHHERRR | 27700
RSSRRDRDEDENERHSRHRRENRRRSHSSDERHGDARRRDEKSRHHRSSRHER | 17900
SASPDESRRSSHRSRRDRDYEKRRDRGEERDSDHDHRRKSHSHRDRERDRGRD | 30000
MRSSLPKLYRYGCLYWITGLCIFVYILYERRYYCCHNMPYFFHQPWFLCLSSL | 68800
GGTRRSSNQFGKRNTVALHPVINDFVGTVDSDSLVTAYKPFLASDFIGRGYDD | 28300
RCLVLFLWALDTIHFAFTSHGLYFYLVTSFGDFAVLLSPTWTILAQVYVTNLS | 50100
MGLWARFFCFVIVCFQITFLYCLLSFSPSFLDLQKIQPLFFTFFFFLLLSLFP | 43200
PMSDQHKSQLLPITSVRLRLKLIVHWIHGFKTQWWFRVFFFQKYLRSILFDPF | 37700
RKNNKREVKVEAREPHHKGRKNNKREVEAVEEVEARDPHHKGRKNNNREVEVE | 28300
MPRLCLWLTCIYGVMYCMEFSLLVYALHSLANEYYPASYGDNLGCVTVNLHYY | 44400
FIHLMNMTQVVVLCIHRFVYGLVPLFEITTCAFWPLLVSLWHLTYLLFYAIMF | 64100
KKEPVYDSEGNEVKPTPRKRVKKEPATEEDGSESKSASKKRVKKEADAEGDSS | 17100
IFVYLRIKKCCCLNKSSLLLDVRLIHKNRDTVIIFARGLVGIFKKLSLRVVEC | 51200
YSILLSVILIFWWSVFTYYPSHLSYLSQRFSYYVWGDDSIDAVTVFKAWVYAH | 61800
FHIGIYARVLMCLLLDKKARPLPEDMKLWVDLLRWLKGGSPGGALSFFTYMEL | 30900
GHGTHCSGTVAGKKYGVAKKASVYAVKVLRSNGSGTMSDVVKGVEYAAESHIK | 7670
MHLLTFTIPSYRAVCKVFPFLFWLSLFLTHWFVYSFSFLQAFFSFCFTWAWCV | 69900
MSQSFLFCPFQCLSLYLFPFCLCFCFPTLAFLSRFSYFILVLFSFLPLLAFVA | 18500
MHNSRSSFLVSCFFIYFFSLLVHCEGVLILTPIPFQNHLVSILECFLFYLFLF | 51600

Sequence | transcriptional activation domain activity
ETVEEPAPKRGKATRTKAAEPAPVEEAPKPAAKPRGRAAAKKATEPAAEAEVE | 35500
VLLVLPLFFSFSLYHPLRLHPFRLFFFFFFFFLCIFFYFSPFPSFSCHFLFSS | 59100
VPWSRSGHAIDLRFVRSFVAALVFLLLLLFLLLLLLLLLLLLLLLFLLFFFVF | 37200
ELKDGGGGESSPIEIADRVVVEECDMEKVALDRTLGRLWRGWRKRLRSPATPV | 65100
MSYIRSCLSFSPFFSFLFLFLPFFFLSFLPFSMCFLCKAFECLFVGGIKHMEH | 37400
TNTGFGASNTPAGGAGGGGGIFGSGTSGFGGGTSAFGAANNNNAFGAKPAFGA | 45600
YADWLLEPEQNNGTWVSDVLWPAINLDLQWISLHWNESSWDLWWPPVWGGSYW | 52100
MEQTLATNQSLQPVKRVACNRCRTQKLKCNPSGEGRGSSSKCVRCAKAGTDCT | 38900
GEEARDRGHRSGSGRHRSRDRERRRRRDRDDDRHTSSRHSRRERSPEEDSSRR | 36700
NLLYQLGVFVARSSTPFIRLHNLYLPSCLQILNLLLLVSQSLYWWIPSVYLVF | 76500
MHVYVYIIIYNNIWYCMVYSINIHIFVNNYYLLRLLAIYYSYCFIVLLFIMFF | 43500
VFERVRLDWLILFDLRMWKKVRNDLRALYISTVVTIPEFKRILGLRFAALYTT | 51300
EETKPAESAKETKPVANRPAQKKPEKRKKEEQEGQEVVEKETSKKRAKKDKKS | 39200
YYLGKYQENSKEKRKFQVIRSGMSELNHILYMALDNATNMVIMWMLLVQYHAT | 55600
MYNTALITIYLLLLLRRIFFTWSYLAYSFNFIATRVFARITMLMLVELFRQHD | 67400
HLNPSWIFLFLFLFLFSPSPFYFLFLFFFFFFGGVPGNGFGFGILLYFFAAGI | 45700
VLSSSLCFPLPPLSPPFLPSLCFPLPPFFPFPPFPLFPPFLPFPLFPLCFPLP | 48300
VQLVLVLILVNILINILTFLILSHQGVMHTSCLYLFAYICARLCLGASLSGVW | 12800
MVFSFLLDILAGILYYYLVLGSHILASCFDYRWFYFFFFFFVLFFSLLFSVFL | 61900
EAAPKEDAAPEPAPEKESKPEKAPEPKAEASKPAAPPASEKKDLKTAPKEETK | 28500
AAKSKGRTSRASRTRGEKSDSKEEKKRTSSLKEKRSSSEEKKSRSSKSAGKEK | 38300

Sequence | transcriptional activation domain activity
MRKLQVRSWSGLHVLSHFQIFDLLALIPGGWCNQILWLQGHHQWYIVILFVFT | 65800
YRTSQDLVGLSTVLEQYFNIGGLTGLLIIGDLIHCGLLPMPSIITWTRLIAHV | 68800
FDQDIPQDSSLNTSYISNLPYFGVTPSENFDETWFFDQAIGLGWLDSAQFTLG | 142000
RGEGDSKSDGKSDGKSEDKAENKGEEAPLVSEKDLVILAEHDLNGRQIKNVIK | 11000
MLVRLQNRLLLLGIFSHCVYGWHLEVDYVSLSDAIQTVVVQCRNLTFHITGLG | 53100
RYIATGRGFATTRISFSILFSRFAGPSIYLGMRTLLMLLYVTLSFWTPYLIYF | 54700
GEEVSAPLPKPKGKGGRPRKHPRPEPVASEYEVDGEPTPKRARRAIKSKRGRR | 23500
AAAVAAKKPEEKKEETPAEAATEAPKEEAKEEKKEEKAATKSRSQSRKRTSIF | < 6570
MMLVQSIPVSRDVILGVLLRLLAPTVFLSSVVLALLLVSTLCKIPKQGRLRAW | 64600
QASPEAAKAEGEKASPEAAKAEGEAQPAEGQKEGEAAKAEGEAAAAEAGAGAG | 27600
KWKEKRSRNDEADGERGAERKPRKRSRSPRRRKEPEAAPERKQQEKPASAAPA | 45600
VATADVCMVTHFLILLLLAAITGAVLVSVFAFLCVICPPHLRRRPVFMLNLLA | 35400
PAYEMCTYVWGFRGACLGLLWLIWFVVLYFVLRIRNIHSSFNERIESIIICFL | 48800
DGDLDEAVYKGFEYKHLGNLAYIGNAAVFDLNGWSIGGGLIFVYLWRSVYFAQ | 67800
GPIFILLNYIFLAMLWLKNYRPHHLHILIRTRPYVYVTSNLPRLRFLFRHFLF | 48300
EEESQAKKTTAAASSTKDLDPKGGTSGKEKKENEGTLTKRGKSGRRKVRKSVL | 17800
CFCCNYFKVPLFCCSLSLYQTIRFFLIFLLLLLQRPSFSVFLVNSILLRFFPL | 37600
KDHIGMKCVVAIVCLLDTMHQIFITHALYIYLIKGFANPLILTRLLWTFLIQL | 56400
PAPAAKKEEKPAAATAEAPKEEAAAAVAAEEPKETKEEEKKEEAKEEKKEEAK | 15800
MIWREFFLFFLFFFFLFGIYGLRVAGLDYFVYGDLFVIINISYLFFWWVYAIY | 45900
MWVINRAFLEFYFIFCIVFTVHLVCFCFFWLIFLFCLLHASFLLCDFPFFFYY | 41100

Sequence | transcriptional activation domain activity
WLHKLPRATWAYPLYGIYYLLTNPALLSPLLSRIIPLLILSIFVLTFTFTFLY | 43800
PENWTMDSWPLYWPQALIDTIPSLQLSIPPMDLTTLDNPLAPFAFFMFLFSWQ | 53400
GKTYTLEQDEDVLDTWFSSGLWPFSTLGWPNQTHDLENLFPTDVLETGWDILF | 126000
LVHFILTGSDFIWFFSYTPEAVALYLFLVEWSKLNYFWVALMYIWNVMPLFLL | 63600
HLLDTNCLLLILKMFGLQEVTNSVVSKVDSPENNFFRYCLMNYSKNPQPMRPE | 39100
TVKNLYLFIIITTVNVVVLLICVAHFALVFMSRAGLSLHARQLTALMHAKFTH | 49000
MAIQAFFVICIIKILLYFLFFFFLFLSLLLYTYMYIHICAYVFYKIEKHVKSM | 51000
KKKSSGRKSGSKGVGRLGSGSEETDEDESSRGSGSEAGRSSKDKKGKSRSNVE | 39900
LAHCRAVVIRRVDGTAFEPVLRQAESLAVARTWLDRLFLCAYWMLTWFLADIV | 56400
LRLVYCQVKKKKYKSINRYVAIHELSYNVMIWRFLAIYHSSQRLKWSIFLLSF | 42100
DELSRQKLGPDLHTILANLPGDLFGIYSRFLRPIHPRDFIHVARFLRWLLYAW | 69500
AIEQFLDNLISQDMMSSNASMNSESHLHIRSPKKQHRYTELNQRYPETHPHSN | 8240
SVSRLHAKIEYEEEEERFVLVVVGRNGAWVDGVWSGAGSRVPLCERSQIQIAS | 45800
GPWFLGAFIPSIPQYGLFYPYGIYFPDTKEWIPILDTFYIALWEHTFFIFPLL | 51600
MCHLTLLSLCFCSVASLLLSLFPLSLCLPFFILFIPPLFFLPHHIPSSFSFLV | 59600
MFLCCVCIEAQARILYLCCLYKLLTFYSFYYFYHSYFLLILNFFLLTILHALC | 74000
FLLFLSFGGLGGGIYSLCFGHIFSSLFLLFVLFSTSFPYMGPQLHVVMMPTCT | 40500
MCVFHFLPWLLFPSPLISLFFVFFILFSFFVFFFLVPSSCPSFISFFPVSCLF | 38000
IKFGVPVALIVIIAAVVGGVLGSRASKNSSASSSAAGDSSSPSGEAAASGAAV | 48300
MLSFVIVRLLTSHLQLVWRAALLLCKPLCICPLQFLYDRESHYNLLCNEAVVF | 68500
